Legend:
MHF1;MHF2 [1] = target: T1, MHF1;MHF2 (human;human, UniProt Q8N2Z9;A8MT69 1-138;1-81, |); test: fluorescence polarization
[2] = target: MHF1 K73A/R74A;MHF2 R11A/K12A;FANCM-F K675A/K676A (human;human;human, UniProt Q8N2Z9;A8MT69;Q8IYD8 1-138;1-81;661-800, K73A;R74A|R11A;K12A|K675A;K676A); test: EMSA
MHF1 1-107;MHF2;FANCM-F = MHF1 1-107;MHF2;FANCM-F (human;human;human, UniProt Q8N2Z9;A8MT69;Q8IYD8 1-107;1-81;661-800, ||); test: not stated
[3] = target: MHF1 K73A/R74A;MHF2;FANCM-F (human;human;human, UniProt Q8N2Z9;A8MT69;Q8IYD8 1-138;1-81;661-800, K73A;R74A||); test: EMSA
[4] = target: MHF1;MHF2 K27A/K29A;FANCM-F (human;human;human, UniProt Q8N2Z9;A8MT69;Q8IYD8 1-138;1-81;661-800, |K27A;K29A|); test: EMSA
[5] = target: MHF1 R12A/R18A/K73A/R74A;MHF2;FANCM-F K686A/R690A/R693A (human;human;human, UniProt Q8N2Z9;A8MT69;Q8IYD8 1-138;1-81;661-800, R12A;R18A;K73A;R74A||K686A;R690A;R693A); test: EMSA
[6] = target: MHF1 K73A/R74A;MHF2;FANCM-F K675A/K676A (human;human;human, UniProt Q8N2Z9;A8MT69;Q8IYD8 1-138;1-81;661-800, K73A;R74A||K675A;K676A); test: EMSA
MHF1;MHF2 [7] = target: T1, MHF1;MHF2; test: EMSA
crystal structure = target: the molecule itself; test: crystal structure

T1 sequence (A8MT69 whole entry, one chain of several): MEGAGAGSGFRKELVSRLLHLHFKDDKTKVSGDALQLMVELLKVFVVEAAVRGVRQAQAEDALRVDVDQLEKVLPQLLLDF
Chain of MHF1 K73A/R74A;MHF2;FANCM-F K675A/K676A (A8MT69 whole entry, chain 2 of 2): as the sequence (A8MT69 whole entry, one chain of several) above
Chain of MHF1 K73A/R74A;MHF2;FANCM-F K675A/K676A (Q8IYD8 661-800 K675A/K676A, chain 3 of 2): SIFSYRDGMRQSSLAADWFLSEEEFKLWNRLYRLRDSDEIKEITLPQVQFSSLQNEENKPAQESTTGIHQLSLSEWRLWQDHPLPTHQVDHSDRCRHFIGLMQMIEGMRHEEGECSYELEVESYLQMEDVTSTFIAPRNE
Chain of MHF1 K73A/R74A;MHF2;FANCM-F (A8MT69 whole entry, chain 2 of 2): as the sequence (A8MT69 whole entry, one chain of several) above
Chain of MHF1 K73A/R74A;MHF2;FANCM-F (Q8IYD8 661-800, chain 3 of 2): as the sequence (Q8IYD8 661-800 K675A/K676A, chain 3 of 2) above, with A15K, A16K counted along it
Chain of MHF1 1-107;MHF2;FANCM-F (A8MT69 whole entry, chain 2 of 2): as the sequence (A8MT69 whole entry, one chain of several) above
Chain of MHF1 1-107;MHF2;FANCM-F (Q8IYD8 661-800, chain 3 of 2): as the sequence (Q8IYD8 661-800 K675A/K676A, chain 3 of 2) above, with A15K, A16K counted along it
Chain of MHF1 R12A/R18A/K73A/R74A;MHF2;FANCM-F K686A/R690A/R693A (Q8N2Z9 whole entry R12A/R18A/K73A/R74A, chain 1 of 3): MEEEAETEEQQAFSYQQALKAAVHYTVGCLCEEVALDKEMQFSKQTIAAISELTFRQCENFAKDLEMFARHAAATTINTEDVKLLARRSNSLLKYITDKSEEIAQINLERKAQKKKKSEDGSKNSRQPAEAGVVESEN
Chain of MHF1 R12A/R18A/K73A/R74A;MHF2;FANCM-F K686A/R690A/R693A (A8MT69 whole entry, chain 2 of 3): as the sequence (A8MT69 whole entry, one chain of several) above
Chain of MHF1 R12A/R18A/K73A/R74A;MHF2;FANCM-F K686A/R690A/R693A (Q8IYD8 661-800 K686A/R690A/R693A, chain 3 of 3): as the sequence (Q8IYD8 661-800 K675A/K676A, chain 3 of 2) above, with A15K, A16K, K26A, R30A, R33A counted along it
Chain of MHF1;MHF2 K27A/K29A;FANCM-F (A8MT69 whole entry K27A/K29A, chain 2 of 2): as the sequence (A8MT69 whole entry, one chain of several) above, with K27A, K29A counted along it
Chain of MHF1;MHF2 K27A/K29A;FANCM-F (Q8IYD8 661-800, chain 3 of 2): as the sequence (Q8IYD8 661-800 K675A/K676A, chain 3 of 2) above, with A15K, A16K counted along it
Chain of MHF1 K73A/R74A;MHF2 R11A/K12A;FANCM-F K675A/K676A (A8MT69 whole entry R11A/K12A, chain 2 of 2): as the sequence (A8MT69 whole entry, one chain of several) above, with R11A, K12A counted along it
Chain of MHF1 K73A/R74A;MHF2 R11A/K12A;FANCM-F K675A/K676A (Q8IYD8 661-800 K675A/K676A, chain 3 of 2): as the sequence (Q8IYD8 661-800 K675A/K676A, chain 3 of 2) above

B1: 59 bp dsDNA (FPA) (dsDNA)
DNA 1: ACGCTGCCGAATTCTACCAGTGCCTTGCTAGGACATCTTTGCCCACCTGCAGGTTCACC
DNA 2: GGTGAACCTGCAGGTGGGCAAAGATGTCCTAGCAAGGCACTGGTAGAATTCGGCAGCGT
- binding result (MHF1;MHF2 [1]): binds

B2: 59 bp dsDNA (EMSA) (dsDNA)
DNA 1: ACGCTGCCGAATTCTACCAGTGCCTTGCTAGGACATCTTTGCCCACCTGCAGGTTCACC
DNA 2: GGTGAACCTGCAGGTGGGCAAAGATGTCCTAGCAAGGCACTGGTAGAATTCGGCAGCGT
- binding result [2]: no binding
- binding result (MHF1 1-107;MHF2;FANCM-F): no binding
- binding result [3]: binds
- binding result [4]: binds
- binding result [5]: no binding
- binding result [6]: no binding
- binding result (MHF1;MHF2 [7]): binds

B3: MHF1^1-107 (truncated MHF1 with the C-terminal 31 residues deleted) (domain or fragment, human, UniProt Q8N2Z9 1-107, looked up)
chain: MEEEAETEEQQRFSYQQRLKAAVHYTVGCLCEEVALDKEMQFSKQTIAAISELTFRQCENFAKDLEMFARHAKRTTINTEDVKLLARRSNSLLKYITDKSEEIAQIN
- binding result (crystal structure): binds

Source: publication PMC3646547 (Nature communications, 2012)
